This is an account of results in PMC7036032 (Molecular cell, 2019).

In assay [1] the target is T1, human CPSF160-WDR33 (1-572) complex (human, UniProt Q10570 1-1443; Q9C0J8 1-572). Put plainly: SEC. (In general: SEC sorts molecules by how far they enter the pores of the column.)
The target of assay [2] is T1, human CPSF160-WDR33 (1-572) complex. Nature of the assay: cryo-EM structure.
Assay [3] has the same target. Nature of the assay: pull-down.

T1 sequence (Q10570 whole entry, chain 1 of 2): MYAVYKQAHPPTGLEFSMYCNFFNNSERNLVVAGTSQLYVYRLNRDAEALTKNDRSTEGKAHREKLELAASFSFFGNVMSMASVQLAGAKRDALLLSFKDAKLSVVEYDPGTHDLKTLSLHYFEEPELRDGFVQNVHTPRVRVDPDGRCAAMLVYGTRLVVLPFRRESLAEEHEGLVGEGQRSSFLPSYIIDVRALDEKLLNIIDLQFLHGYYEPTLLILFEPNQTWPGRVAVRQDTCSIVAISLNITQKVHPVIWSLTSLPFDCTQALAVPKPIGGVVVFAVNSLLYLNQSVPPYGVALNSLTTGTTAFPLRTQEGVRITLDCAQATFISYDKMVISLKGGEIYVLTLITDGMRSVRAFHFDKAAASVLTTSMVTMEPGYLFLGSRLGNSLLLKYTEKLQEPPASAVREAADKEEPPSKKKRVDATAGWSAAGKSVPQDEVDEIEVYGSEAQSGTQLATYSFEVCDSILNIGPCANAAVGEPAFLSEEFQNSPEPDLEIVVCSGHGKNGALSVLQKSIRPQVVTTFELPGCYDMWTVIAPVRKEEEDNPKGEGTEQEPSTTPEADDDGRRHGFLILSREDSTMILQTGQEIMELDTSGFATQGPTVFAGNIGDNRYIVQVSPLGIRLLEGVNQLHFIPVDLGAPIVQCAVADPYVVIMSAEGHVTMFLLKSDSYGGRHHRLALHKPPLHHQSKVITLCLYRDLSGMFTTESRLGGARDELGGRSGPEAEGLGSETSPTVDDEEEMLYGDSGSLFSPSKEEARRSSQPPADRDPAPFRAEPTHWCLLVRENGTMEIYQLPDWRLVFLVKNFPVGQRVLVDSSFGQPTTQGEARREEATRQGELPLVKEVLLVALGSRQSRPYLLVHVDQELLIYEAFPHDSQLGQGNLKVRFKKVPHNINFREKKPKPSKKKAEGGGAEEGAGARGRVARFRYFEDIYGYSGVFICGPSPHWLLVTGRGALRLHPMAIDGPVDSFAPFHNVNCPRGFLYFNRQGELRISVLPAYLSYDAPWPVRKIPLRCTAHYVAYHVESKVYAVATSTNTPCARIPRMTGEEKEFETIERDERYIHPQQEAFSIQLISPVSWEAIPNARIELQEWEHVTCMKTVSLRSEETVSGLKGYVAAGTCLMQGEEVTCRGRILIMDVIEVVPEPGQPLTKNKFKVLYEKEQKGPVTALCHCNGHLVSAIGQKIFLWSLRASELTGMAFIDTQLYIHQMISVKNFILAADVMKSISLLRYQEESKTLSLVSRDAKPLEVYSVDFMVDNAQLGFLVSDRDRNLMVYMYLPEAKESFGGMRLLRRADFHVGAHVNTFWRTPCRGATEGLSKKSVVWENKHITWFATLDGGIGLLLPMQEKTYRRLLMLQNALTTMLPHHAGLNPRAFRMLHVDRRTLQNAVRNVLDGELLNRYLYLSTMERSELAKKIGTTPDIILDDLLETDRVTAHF
T1 sequence (Q9C0J8 1-572, chain 2 of 2): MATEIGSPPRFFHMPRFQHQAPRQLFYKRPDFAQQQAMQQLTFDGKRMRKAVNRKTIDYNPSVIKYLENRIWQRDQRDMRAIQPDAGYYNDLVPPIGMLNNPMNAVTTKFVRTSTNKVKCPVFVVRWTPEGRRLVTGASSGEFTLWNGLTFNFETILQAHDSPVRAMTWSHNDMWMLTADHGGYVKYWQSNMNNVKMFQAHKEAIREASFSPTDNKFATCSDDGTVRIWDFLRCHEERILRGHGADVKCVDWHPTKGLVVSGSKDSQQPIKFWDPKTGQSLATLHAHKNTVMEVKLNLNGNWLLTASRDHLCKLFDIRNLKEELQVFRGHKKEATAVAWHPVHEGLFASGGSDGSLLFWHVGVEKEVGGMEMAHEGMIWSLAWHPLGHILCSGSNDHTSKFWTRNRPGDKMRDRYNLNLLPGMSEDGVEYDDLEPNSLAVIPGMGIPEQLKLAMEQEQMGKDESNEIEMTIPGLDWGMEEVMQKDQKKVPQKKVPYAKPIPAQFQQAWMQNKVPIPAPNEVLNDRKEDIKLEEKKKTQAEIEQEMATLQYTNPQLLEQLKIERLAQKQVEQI

B1: human CPSF30-Fip1(1-243) complex (complex)
chain 1: MQEIIASVDHIKFDLEIAVEQQLGAQPLPFPGMDKSGAAVCEFFLKAACGKGGMCPFRHISGEKTVVCKHWLRGLCKKGDQCEFLHEYDMTKMPECYFYSKFGECSNKECPFLHIDPESKIKDCPWYDRGFCKHGPLCRHRHTRRVICVNYLVGFCPEGPSCKFMHPRFELPMGTTEQPPLPQQTQPPAKQRTPQVIGVMQSQNSSAGNRGPRPLEQVTCYKCGEKGHYANRCTKGHLAFLSGQ
chain 2: MSAGEVERLVSELSGGTGGDEEEEWLYGGPWDVHVHSDLAKDLDENEVERPEEENASANPPSGIEDETAENGVPKPKVTETEDDSDSDSDDDEDDVHVTIGDIKTGAPQYGSYGTAPVNLNIKTGGRVYGTTGTKVKGVDLDAPGSINGVPLLEVDLDSFEDKPWRKPGADLSDYFNYGFNEDTWKAYCEKQKRIRMGLEVIPVTSTTNKITAEDCTMEVTPGAEIQDGRFNLFKVQQGRTGN
Regarding B1, the binding result in assay [1] is given as “binds”.

B2: CPSF30 (isoform 2) (natural protein, human, UniProt O95639-2 1-244, looked up)
chain: MQEIIASVDHIKFDLEIAVEQQLGAQPLPFPGMDKSGAAVCEFFLKAACGKGGMCPFRHISGEKTVVCKHWLRGLCKKGDQCEFLHEYDMTKMPECYFYSKFGECSNKECPFLHIDPESKIKDCPWYDRGFCKHGPLCRHRHTRRVICVNYLVGFCPEGPSCKFMHPRFELPMGTTEQPPLPQQTQPPAKQRTPQVIGVMQSQNSSAGNRGPRPLEQVTCYKCGEKGHYANRCTKGHLAFLSGQ
As for B2, the binding result in assay [2] is “binds”.

B3: MBP-CPSF100 (full length) (natural protein, human, UniProt Q9P2I0 1-782, looked up)
chain: MTSIIKLTTLSGVQEESALCYLLQVDEFRFLLDCGWDEHFSMDIIDSLRKHVHQIDAVLLSHPDPLHLGALPYAVGKLGLNCAIYATIPVYKMGQMFMYDLYQSRHNTEDFTLFTLDDVDAAFDKIQQLKFSQIVNLKGKGHGLSITPLPAGHMIGGTIWKIVKDGEEEIVYAVDFNHKREIHLNGCSLEMLSRPSLLITDSFNATYVQPRRKQRDEQLLTNVLETLRGDGNVLIAVDTAGRVLELAQLLDQIWRTKDAGLGVYSLALLNNVSYNVVEFSKSQVEWMSDKLMRCFEDKRNNPFQFRHLSLCHGLSDLARVPSPKVVLASQPDLECGFSRDLFIQWCQDPKNSIILTYRTTPGTLARFLIDNPSEKITEIELRKRVKLEGKELEEYLEKEKLKKEAAKKLEQSKEADIDSSDESDIEEDIDQPSAHKTKHDLMMKGEGSRKGSFFKQAKKSYPMFPAPEERIKWDEYGEIIKPEDFLVPELQATEEEKSKLESGLTNGDEPMDQDLSDVPTKCISTTESIEIKARVTYIDYEGRSDGDSIKKIINQMKPRQLIIVHGPPEASQDLAECCRAFGGKDIKVYMPKLHETVDATSETHIYQVRLKDSLVSSLQFCKAKDAELAWIDGVLDMRVSKVDTGVILEEGELKDDGEDSEMQVEAPSDSSVIAQQKAMKSLFGDDEKETGEESEIIPTLEPLPPHEVPGHQSVFMNEPRLSDFKQVLLREGIQAEFVGGVLVCNNQVAVRRTETGRIGLEGCLCQDFYRIRDLLYEQYAIV
As for B3, in assay [3], the binding result was “binds”.

For the molecule SYPMFPAPEERIKWDEYGEIIKPEDFL (domain or fragment, human, UniProt Q9P2I0 460-486, looked up) [MBP-CPSF100 (460-486)], the binding result in assay [3] is “binds”.
